Measurements from patent publication EP4745153A1, “GLP-1, GIP AND GCG RECEPTOR […] USE THEREOF” (Jiangsu Hengrui Pharmaceuticals Co., Ltd., priority 2023, dated 2025).
Where two headings read alike, the source gives them in different places. Starred links: 1 amine or outer side, 2 acyl side, 3 side chain; linkers in the order of their positions; H or OH if unused. Non-standard residues stand in square brackets, D forms with d. Groups on a side chain read outwards from the residue. No end group written: not given here. *: point of attachment. C20 diacid = O=C(O)CCCCCCCCCCCCCCCCCCC(=O)*; γGlu = O=C(O)[C@H](CCC(=O)[*:2])N[*:1]; αMeL = CC(C)C[C@](C)(N)C(=O)O; Iva = CC[C@](C)(N)C(=O)O; Ac4c = NC1(C(=O)O)CCC1; AEEA = NCCOCCOCC(=O)O; Ac3c = NC1(C(=O)O)CC1; Aib = CC(C)(N)C(=O)O

Legend:
Assay in all cases: cell-based or functional assay
[1] = target: T1, human glucagon-like peptide-1 receptor (human, UniProt P43220 24-463)
human glucagon receptor [2] = target: T2, human glucagon receptor (human, UniProt P47871 26-477)
T2 sequence (P47871 26-477): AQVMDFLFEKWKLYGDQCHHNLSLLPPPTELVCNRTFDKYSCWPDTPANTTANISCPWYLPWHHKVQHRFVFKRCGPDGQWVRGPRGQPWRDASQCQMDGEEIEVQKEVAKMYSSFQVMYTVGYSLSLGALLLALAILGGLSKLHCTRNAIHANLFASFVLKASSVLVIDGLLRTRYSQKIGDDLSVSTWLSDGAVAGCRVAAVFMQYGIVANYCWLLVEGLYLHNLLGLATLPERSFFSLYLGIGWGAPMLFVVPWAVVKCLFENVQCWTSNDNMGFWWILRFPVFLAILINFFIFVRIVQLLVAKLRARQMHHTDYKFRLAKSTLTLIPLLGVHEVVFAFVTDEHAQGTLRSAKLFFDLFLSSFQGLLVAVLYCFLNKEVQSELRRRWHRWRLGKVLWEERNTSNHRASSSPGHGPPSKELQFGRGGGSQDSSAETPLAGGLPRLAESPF

[3] = target: T3, human glucose-dependent insulinotropic polypeptide receptor (human, UniProt P48546 22-466)
T3 sequence (looked up): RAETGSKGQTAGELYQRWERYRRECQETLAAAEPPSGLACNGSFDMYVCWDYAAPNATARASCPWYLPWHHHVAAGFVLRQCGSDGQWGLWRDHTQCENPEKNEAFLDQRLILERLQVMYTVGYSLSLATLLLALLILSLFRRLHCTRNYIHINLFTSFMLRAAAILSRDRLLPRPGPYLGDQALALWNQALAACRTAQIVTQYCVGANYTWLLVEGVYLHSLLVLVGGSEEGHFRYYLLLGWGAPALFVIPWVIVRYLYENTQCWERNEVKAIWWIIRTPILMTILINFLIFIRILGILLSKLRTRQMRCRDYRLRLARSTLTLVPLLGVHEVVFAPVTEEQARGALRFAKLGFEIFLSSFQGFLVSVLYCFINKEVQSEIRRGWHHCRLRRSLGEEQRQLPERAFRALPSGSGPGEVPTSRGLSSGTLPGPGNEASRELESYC

[4] = target: T1, human glucagon-like peptide-1 receptor; remark: listed apart in the source
human glucagon receptor [5] = target: T2, human glucagon receptor; remark: listed apart in the source
[6] = target: T3, human glucose-dependent insulinotropic …; remark: listed apart in the source
human glucagon receptor [7] = target: T2, human glucagon receptor; remark: listed apart in the source
[8] = target: T3, human glucose-dependent insulinotropic …; remark: listed apart in the source
human glucagon receptor [9] = target: T2, human glucagon receptor; remark: listed apart in the source

B1: Compound No. 0107 (peptide)
peptide: H[Aib]HGTFTSDYSK[Aib]LEK([AEEA-AEEA-γGlu-C20 diacid])KAAQEFVEWLLAGGPSSGAPPPS-NH2
Activity against human GLP-1R (EC50 nM) [1]: 0.016 nM | Activity against human GCGR (EC50 nM) (human glucagon receptor [2]): 0.274 nM

B2: Compound No. 0149 (peptide)
peptide: H[Aib]HGTFTSDYSILLEK([AEEA-AEEA-γGlu-C20 diacid])QAA[Ac3c]EFVEWLLA[dE]GPSSGAPPPS-NH2
modifications: N-terminus assumed
SMILES: CC[C@H](C)[C@H](NC(=O)[C@H](CO)NC(=O)[C@H](Cc1ccc(O)cc1)NC(=O)[C@H](CC(=O)O)NC(=O)[C@H](CO)NC(=O)[C@@H](NC(=O)[C@H](Cc1ccccc1)NC(=O)[C@@H](NC(=O)CNC(=O)[C@H](Cc1c[nH]cn1)NC(=O)C(C)(C)NC(=O)[C@@H](N)Cc1c[nH]cn1)[C@@H](C)O)[C@@H](C)O)C(=O)N[C@@H](CC(C)C)C(=O)N[C@@H](CC(C)C)C(=O)N[C@@H](CCC(=O)O)C(=O)N[C@@H](CCCCNC(=O)COCCOCCNC(=O)COCCOCCNC(=O)CC[C@H](NC(=O)CCCCCCCCCCCCCCCCCCC(=O)O)C(=O)O)C(=O)N[C@@H](CCC(N)=O)C(=O)N[C@@H](C)C(=O)N[C@@H](C)C(=O)NC1(C(=O)N[C@@H](CCC(=O)O)C(=O)N[C@@H](Cc2ccccc2)C(=O)N[C@H](C(=O)N[C@@H](CCC(=O)O)C(=O)N[C@@H](Cc2c[nH]c3ccccc23)C(=O)N[C@@H](CC(C)C)C(=O)N[C@@H](CC(C)C)C(=O)N[C@@H](C)C(=O)N[C@H](CCC(=O)O)C(=O)NCC(=O)N2CCC[C@H]2C(=O)N[C@@H](CO)C(=O)N[C@@H](CO)C(=O)NCC(=O)N[C@@H](C)C(=O)N2CCC[C@H]2C(=O)N2CCC[C@H]2C(=O)N2CCC[C@H]2C(=O)N[C@@H](CO)C(N)=O)C(C)C)CC1
Activity against human GIPR (EC50 nM) [3]: 0.004 nM | Activity against human GLP-1R (EC50 nM) [4]: 0.071 nM | Activity against human GCGR (EC50 nM) (human glucagon receptor [5]): 0.301 nM

B3: Compound No. 0150 (peptide)
peptide: H[Aib]HGTFTSDYSILLEK([AEEA-AEEA-γGlu-C20 diacid])QAA[Ac4c]EFVEWLLA[dE]GPSSGAPPPS-NH2
modifications: N-terminus assumed
SMILES: CC[C@H](C)[C@H](NC(=O)[C@H](CO)NC(=O)[C@H](Cc1ccc(O)cc1)NC(=O)[C@H](CC(=O)O)NC(=O)[C@H](CO)NC(=O)[C@@H](NC(=O)[C@H](Cc1ccccc1)NC(=O)[C@@H](NC(=O)CNC(=O)[C@H](Cc1c[nH]cn1)NC(=O)C(C)(C)NC(=O)[C@@H](N)Cc1c[nH]cn1)[C@@H](C)O)[C@@H](C)O)C(=O)N[C@@H](CC(C)C)C(=O)N[C@@H](CC(C)C)C(=O)N[C@@H](CCC(=O)O)C(=O)N[C@@H](CCCCNC(=O)COCCOCCNC(=O)COCCOCCNC(=O)CC[C@H](NC(=O)CCCCCCCCCCCCCCCCCCC(=O)O)C(=O)O)C(=O)N[C@@H](CCC(N)=O)C(=O)N[C@@H](C)C(=O)N[C@@H](C)C(=O)NC1(C(=O)N[C@@H](CCC(=O)O)C(=O)N[C@@H](Cc2ccccc2)C(=O)N[C@H](C(=O)N[C@@H](CCC(=O)O)C(=O)N[C@@H](Cc2c[nH]c3ccccc23)C(=O)N[C@@H](CC(C)C)C(=O)N[C@@H](CC(C)C)C(=O)N[C@@H](C)C(=O)N[C@H](CCC(=O)O)C(=O)NCC(=O)N2CCC[C@H]2C(=O)N[C@@H](CO)C(=O)N[C@@H](CO)C(=O)NCC(=O)N[C@@H](C)C(=O)N2CCC[C@H]2C(=O)N2CCC[C@H]2C(=O)N2CCC[C@H]2C(=O)N[C@@H](CO)C(N)=O)C(C)C)CCC1
Activity against human GIPR (EC50 nM) [3]: 0.002 nM | Activity against human GLP-1R (EC50 nM) [4]: 0.076 nM | Activity against human GCGR (EC50 nM) (human glucagon receptor [5]): 0.076 nM

B4: Compound No. 0151 (peptide)
peptide: H[Aib]HGTFTSDYSILLEK([AEEA-AEEA-γGlu-C20 diacid])KAAQEFVEWLLA[dE]GPSSGAPPPS-NH2
modifications: N-terminus assumed
SMILES: CC[C@H](C)[C@H](NC(=O)[C@H](CO)NC(=O)[C@H](Cc1ccc(O)cc1)NC(=O)[C@H](CC(=O)O)NC(=O)[C@H](CO)NC(=O)[C@@H](NC(=O)[C@H](Cc1ccccc1)NC(=O)[C@@H](NC(=O)CNC(=O)[C@H](Cc1c[nH]cn1)NC(=O)C(C)(C)NC(=O)[C@@H](N)Cc1c[nH]cn1)[C@@H](C)O)[C@@H](C)O)C(=O)N[C@@H](CC(C)C)C(=O)N[C@@H](CC(C)C)C(=O)N[C@@H](CCC(=O)O)C(=O)N[C@@H](CCCCNC(=O)COCCOCCNC(=O)COCCOCCNC(=O)CC[C@H](NC(=O)CCCCCCCCCCCCCCCCCCC(=O)O)C(=O)O)C(=O)N[C@@H](CCCCN)C(=O)N[C@@H](C)C(=O)N[C@@H](C)C(=O)N[C@@H](CCC(N)=O)C(=O)N[C@@H](CCC(=O)O)C(=O)N[C@@H](Cc1ccccc1)C(=O)N[C@H](C(=O)N[C@@H](CCC(=O)O)C(=O)N[C@@H](Cc1c[nH]c2ccccc12)C(=O)N[C@@H](CC(C)C)C(=O)N[C@@H](CC(C)C)C(=O)N[C@@H](C)C(=O)N[C@H](CCC(=O)O)C(=O)NCC(=O)N1CCC[C@H]1C(=O)N[C@@H](CO)C(=O)N[C@@H](CO)C(=O)NCC(=O)N[C@@H](C)C(=O)N1CCC[C@H]1C(=O)N1CCC[C@H]1C(=O)N1CCC[C@H]1C(=O)N[C@@H](CO)C(N)=O)C(C)C
Activity against human GIPR (EC50 nM) [3]: 0.004 nM | Activity against human GLP-1R (EC50 nM) [4]: 0.037 nM | Activity against human GCGR (EC50 nM) (human glucagon receptor [5]): 0.055 nM

B5: Compound No. 0156 (peptide)
peptide: H[Aib]QGTFTSDYSILLEK([AEEA-AEEA-γGlu-C20 diacid])KAA[Aib]EFVEWLLAGGPSSGAPPPS-NH2
Activity against human GIPR (EC50 nM) [6]: 0.019 nM | Activity against human GCGR (EC50 nM) (human glucagon receptor [7]): 0.566 nM

B6: Compound No. 0157 (peptide)
peptide: H[Aib]QGTFTSDYSI[αMeL]LEK([AEEA-AEEA-γGlu-C20 diacid])KAA[Aib]EFVEWLLAGGPSSGAPPPS-NH2
Activity against human GIPR (EC50 nM) [6]: 0.008 nM | Activity against human GCGR (EC50 nM) (human glucagon receptor [7]): 1.33 nM

B7: Compound No. 0136 (peptide)
peptide: H[Aib]HGTFTSDLSILLEK([AEEA-AEEA-γGlu-C20 diacid])KAA[Iva]EFVEWLLAGGPSSGAPPPS-NH2
Activity against human GIPR (EC50 nM) [8]: 0.001 nM | Activity against human GCGR (EC50 nM) (human glucagon receptor [9]): 0.039 nM
